Results on two variants are retold here after IntAct's records for PubMed 23023224.

B1: Unconventional myosin-VI (Homo sapiens), Q9UM54 (parent)
chain: MEDGKPVWAPHPTDGFQMGNIVDIGPDSLTIEPLNQKGKTFLALINQVFPAEEDSKKDVEDNCSLMYLNEATLLHNIKVRYSKDRIYTYVANILIAVNPYFDIPKIYSSEAIKSYQGKSLGTRPPHVFAIADKAFRDMKVLKMSQSIIVSGESGAGKTENTKFVLRYLTESYGTGQDIDDRIVEANPLLEAFGNAKTVRNNNSSRFGKFVEIHFNEKSSVVGGFVSHYLLEKSRICVQGKEERNYHIFYRLCAGASEDIREKLHLSSPDNFRYLNRGCTRYFANKETDKQILQNRKSPEYLKAGSMKDPLLDDHGDFIRMCTAMKKIGLDDEEKLDLFRVVAGVLHLGNIDFEEAGSTSGGCNLKNKSAQSLEYCAELLGLDQDDLRVSLTTRVMLTTAGGTKGTVIKVPLKVEQANNARDALAKTVYSHLFDHVVNRVNQCFPFETSSYFIGVLDIAGFEYFEHNSFEQFCINYCNEKLQQFFNERILKEEQELYQKEGLGVNEVHYVDNQDCIDLIEAKLVGILDILDEENRLPQPSDQHFTSAVHQKHKDHFRLTIPRKSKLAVHRNIRDDEGFIIRHFAGAVCYETTQFVEKNNDALHMSLESLICESRDKFIRELFESSTNNNKDTKQKAGKLSFISVGNKFKTQLNLLLDKLRSTGASFIRCIKPNLKMTSHHFEGAQILSQLQCSGMVSVLDLMQGGYPSRASFHELYNMYKKYMPDKLARLDPRLFCKALFKALGLNENDYKFGLTKVFFRPGKFAEFDQIMKSDPDHLAELVKRVNHWLTCSRWKKVQWCSLSVIKLKNKIKYRAEACIKMQKTIRMWLCKRRHKPRIDGLVKVGTLKKRLDKFNEVVSVLKDGKPEMNKQIKNLEISIDTLMAKIKSTMMTQEQIQKEYDALVKSSEELLSALQKKKQQEEEAERLRRIQEEMEKERKRREEDEKRRRKEEEERRMKLEMEAKRKQEEEERKKREDDEKRIQAEVEAQLARQKEEESQQQAVLEQERRDRELALRIAQSEAELISDEAQADLALRRSLDSYPVSKNDGTRPKMTPEQMAKEMSEFLSRGPAVLATKAAAGTKKYDLSKWKYAELRDTINTSCDIELLAACREEFHRRLKVYHAWKSKNKKRNTETEQRAPKSVTDYDFAPFLNNSPQQNPAAQIPARQREIEMNRQQRFFRIPFIRPADQYKDPQSKKKGWWYAHFDGPWIARQMELHPDKPPILLVAGKDDMEMCELNLEETGLTRKRGAEILPRQFEEIWERCGGIQYLQNAIESRQARPTYATAMLQSLLK
B2: Unconventional myosin-VI (Homo sapiens), Q9UM54 (parent)
chain: B1 chain
partner: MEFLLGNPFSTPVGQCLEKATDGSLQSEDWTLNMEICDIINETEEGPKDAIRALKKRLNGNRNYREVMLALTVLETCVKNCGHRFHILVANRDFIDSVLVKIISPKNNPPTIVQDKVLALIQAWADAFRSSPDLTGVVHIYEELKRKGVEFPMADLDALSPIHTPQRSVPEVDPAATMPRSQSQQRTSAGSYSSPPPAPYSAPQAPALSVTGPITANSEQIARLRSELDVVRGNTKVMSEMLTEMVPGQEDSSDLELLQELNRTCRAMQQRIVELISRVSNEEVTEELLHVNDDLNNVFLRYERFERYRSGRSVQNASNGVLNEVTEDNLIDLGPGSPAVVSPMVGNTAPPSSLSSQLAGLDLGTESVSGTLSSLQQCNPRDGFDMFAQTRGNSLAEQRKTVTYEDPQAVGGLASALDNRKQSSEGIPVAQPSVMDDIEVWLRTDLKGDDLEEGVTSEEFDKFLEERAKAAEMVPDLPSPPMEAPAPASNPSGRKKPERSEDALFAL

The first assay covers variants of B1. The settings on record: with TOM1, O60784-1.
TOM1, O60784-1, sequence (O60784 whole entry): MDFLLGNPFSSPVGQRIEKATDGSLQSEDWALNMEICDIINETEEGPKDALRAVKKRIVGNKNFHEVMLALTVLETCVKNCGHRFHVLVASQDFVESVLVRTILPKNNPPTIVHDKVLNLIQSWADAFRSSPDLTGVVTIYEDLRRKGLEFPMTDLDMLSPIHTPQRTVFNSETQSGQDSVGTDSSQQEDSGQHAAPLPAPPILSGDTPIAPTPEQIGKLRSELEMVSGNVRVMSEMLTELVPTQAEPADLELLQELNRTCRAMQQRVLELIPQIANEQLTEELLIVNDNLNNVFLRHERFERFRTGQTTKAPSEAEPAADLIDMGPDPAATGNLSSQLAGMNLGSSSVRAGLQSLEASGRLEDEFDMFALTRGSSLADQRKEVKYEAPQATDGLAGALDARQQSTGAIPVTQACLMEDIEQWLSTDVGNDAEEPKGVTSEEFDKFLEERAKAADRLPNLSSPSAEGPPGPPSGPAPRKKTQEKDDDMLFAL
As to W1202L, the “effect of a mutation on the interaction” value is reported as “disrupting interaction strength”.

The next assay covers variants of B2. The settings on record: with tm1l2_human TOM1L2, Q6ZVM7.
As to W1202L, the “effect of a mutation on the interaction” value is listed as “disrupting interaction strength”.
